Reference: patent US20220403048A1, “BINDING MOLECULES TO ARGINASE II [ARG2]” (Cancer Research Technology Limited, priority 2019, published 2022)

Key:
[1] = biological target: T1, monomeric ARG2 (Homo sapiens, UniProt P78540, E275Q); test: Human monomeric ARG2 enzyme inhibition assay; assay type: biochemical; details: purified recombinant human IgG1, FIG. 5
T1 construct: human ARG2 (aa23-354); His10 (C); made in house; host or cells: E. coli
T1 sequence (P78540 23-354 E275Q): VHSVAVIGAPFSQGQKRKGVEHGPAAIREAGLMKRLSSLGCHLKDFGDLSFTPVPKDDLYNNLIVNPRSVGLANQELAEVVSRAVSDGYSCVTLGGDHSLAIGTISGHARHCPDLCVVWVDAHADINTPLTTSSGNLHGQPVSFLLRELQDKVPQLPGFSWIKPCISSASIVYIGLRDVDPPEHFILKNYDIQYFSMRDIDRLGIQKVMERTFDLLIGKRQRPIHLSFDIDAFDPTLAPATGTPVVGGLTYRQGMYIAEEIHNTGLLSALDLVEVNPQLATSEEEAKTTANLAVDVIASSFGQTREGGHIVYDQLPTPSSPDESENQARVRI
Method: ARG2 specific recombinant IgG1 were screened for their ability to inhibit enzymatic activity of monomeric ARG2. In this assay, the ability of ARG2 specific recombinant IgG1 to inhibit the enzymatic activity of monomeric ARG2 was determined by measuring the production of urea, the product of L-arginine turnover by monomeric ARG2.
IC50 values were determined by testing a dilution series of the ARG2 specific recombinant IgG1, prepared in TBS.
10 μl of ARG2 specific recombinant IgG1 (dilution series) were added to a Greiner Bio-One® 384 well assay plate (Greiner Bio-one, UK; cat: 781901). […]
Urea was detected by the simultaneous addition of equal volumes of O-Phthaldialdehyde (1.5 mM O-Phthaldialdehyde, 7% H2SO4, 0.03% Brij L23) and N-(1-Napthyl)ethylenediamine (1.66 mM N-(1-Napthyl)ethylenediamine, 81 mM Boric acid, 21% H2SO4, 0.03% Brij L23) followed by an 18 minute incubation at room temperature before the colorimetric product was quantified on the Pherastar by measuring absorbance at 505 nm.
ARG2 specific recombinant IgG1 were tested alongside N-Hydroxyl-L-Arginine (a small molecule competitive inhibitor of ARG2) as a positive control and NIP228 (irrelevant isotype control antibody) as a negative control. Data points were plotted and IC50 values determined using a four parameter fit in GraphPad Prism (FIG. 5).

[2] = biological target: T2, recombinant human trimeric ARG2 enzyme (Homo sapiens, UniProt P78540, E275H/R327K); test: Direct binding HTRF assay, human trimeric ARG2; details: purified scFv, FIG. 1A
T2 construct: His10 (after a GGG linker) (C); made in house; host or cells: E. coli BL21 (DE3)
T2 sequence (P78540 with tags, fused parts or gaps E275H/R327K): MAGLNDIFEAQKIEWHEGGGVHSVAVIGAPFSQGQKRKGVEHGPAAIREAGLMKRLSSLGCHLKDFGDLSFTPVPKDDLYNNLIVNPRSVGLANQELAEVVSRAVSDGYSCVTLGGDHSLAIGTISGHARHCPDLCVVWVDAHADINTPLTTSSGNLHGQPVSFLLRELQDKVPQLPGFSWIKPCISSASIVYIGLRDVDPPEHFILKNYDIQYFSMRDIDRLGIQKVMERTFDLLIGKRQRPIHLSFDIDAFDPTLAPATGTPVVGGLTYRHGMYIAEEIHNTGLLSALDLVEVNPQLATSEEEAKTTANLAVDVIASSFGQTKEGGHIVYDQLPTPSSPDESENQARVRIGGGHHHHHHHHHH
Method: Unpurified scFv from periplasmic preparations were screened in a homogeneous time-resolved fluorescence (HTRF™, CisBio Bioassays, France) binding assay using a Pherastar plate reader (BMG Labtech, Germany). In this assay, binding of unpurified scFv to recombinant human trimeric ARG2 enzyme was assessed by measuring the fluorescence resonance energy transfer (FRET) between the c-myc tagged scFv and the biotinylated enzyme using streptavidin cryptate and anti-c-myc-XL665 detection reagents (CisBio International, France; cat: 610SAKLB and 61 MYCXLB respectively). […] Assay plates were incubated overnight at 4° C. prior to reading time resolved fluorescence on a Pherastar plate reader ([…]) using an excitation wavelength of 320 nm and measuring the emission at 620 nm and 665 nm (100 flashes).
Data were analysed by calculating % Delta F values for each sample. % Delta F was determined according to equation 1.
The scFv with unique protein sequences were expressed in E. coli and purified by affinity chromatography (essentially as described (Bannister et al., 2006)). The ARG2 binding profile of each purified scFv was determined by testing a dilution series of the purified scFv in the HTRF™ assay described in section 1.4, substituting the unpurified scFv periplasmic preparation with the purified scFv. […] Data were analysed by calculating the % Delta F values as described in section 1.4. […]

[3] = system: recombinant cynomolgus monkey trimeric ARG2 enzyme; test: Direct binding HTRF assay, cynomolgus trimeric ARG2; details: purified scFv, FIG. 1C
recombinant cynomolgus monkey trimeric ARG2 enzyme, sequence (as listed by the source): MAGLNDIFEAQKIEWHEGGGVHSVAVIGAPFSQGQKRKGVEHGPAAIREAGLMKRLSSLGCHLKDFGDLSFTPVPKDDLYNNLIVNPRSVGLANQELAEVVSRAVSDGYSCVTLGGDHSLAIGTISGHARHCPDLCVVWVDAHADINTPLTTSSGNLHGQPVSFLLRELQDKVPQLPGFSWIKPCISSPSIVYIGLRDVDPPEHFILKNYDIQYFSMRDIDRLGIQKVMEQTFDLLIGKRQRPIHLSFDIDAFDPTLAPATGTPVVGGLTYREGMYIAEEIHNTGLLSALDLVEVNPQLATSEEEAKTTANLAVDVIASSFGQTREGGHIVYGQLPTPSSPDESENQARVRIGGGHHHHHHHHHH

B1: C0020065: anti-ARG2 antibody, alternate lead isolation clone, VH SEQ ID NO: 2, VL SEQ ID NO: 7 (antibody, listed as Homo sapiens, V domains shown)
VH: GVNLRESGGGVVQPGRSLRLSCAASGFTFSSYAMHWVRQAPGKGLEWVAVISYDGSNKYYVDSVKGRFTISRDNSKNTLYLQMNSLRAEDTAVYYCARDSSQLWFDYWGRGTLVTVSS
VL: QSVVTQPPSVSGAPGQRVTISCTGSSSNIGTGYDVHWYQQLPGTAPKLLIYGNSNRPSGVPDRFSGSKSGTSASLAITGLQAEDEADYYCQSYDSSLSGSVVFGGGTQLTVL
modifications: C0020065
- inhibition of the activity of human monomeric ARG2 [1]: inhibited
- binding to biotinylated recombinant human trimeric ARG2 enzyme [2]: bound
- binding to biotinylated recombinant cynomolgus trimeric ARG2 enzyme [3]: bound
